# Assay results published in the DeepSol protein solubility set.
# Assay: soluble on expression in E. coli; label from the status in PepcDB or PDB records
row,Sequence,soluble on expression in E. coli
1,MDPSSIDLGSIPGGSEQQQHEDGAAAAAGSPKEVFRSQQSLGLITQRFMSLRQRNEVLNLNEVAKELNISKRRVYDVINVLEGLGYVEKVEKNNIRWIGDNNNSEEQNALEARVEMLRQQEKLLELMIRDAQAIIELHFEDPIERPYNYVSKEDIRKTAEPNTKSIIVKSELDTSSSFEIQVTDPSTSGSHDMIVRNKNGVKSHALLFTNDPPEYGDEEDEDDVKKLSSQKRFETSEALRVTLAEMLTDPTTISSSPKHIKLEEPEEIDTEDLETFAPPEFSENKWSQKIGGGLAILWAWLALMPRPQNGNFFSAKFFKFFPETVARKTFVLPPSTSASQSNAPYLPETPGRGLFFSPFKSLIDPCILPSFSDDLTSGYINITTPSRATGAGAGASGQEDEEPVSVMDFFSD,not soluble
2,MDQFISAFLKSASENNFQQLAKEFLPQYSALISKAGGMLSPETLTGIHKALQEGNLSDVMSQIQKAISAAENAILEVAVIGQSGTGKSSFINALRGLGHEADESADVGTVETTMCKTPYQHPKYPKVIFWDLPGTGTPNFHTDTYLDQVGFANYDFFIIISSSRFSLNDALLAQKIKDAGKKFYFVRTKVDSDLYNEQKAKPIAFKKEKVLQQIRDYCVTNLIKTGVTEPRIFLISNLDLGTFDFPELEETLLKELPGHKRHMFALLLPNISDASIELKKHFLREKIWLEALKSAAVSFIPFMTFFKGFDLPEQEQCLKDYRSYFGLDDQSIKEIAEKLGAPLADIKGELKCLDFWSLVKDNSIIAQATSAAEAFCAVKGGPESSAFQALKVYYRRTQFLNIVVDDAKHLLRKIETVNVA,soluble
3,MDQNVPISKKLWNIVRFLLYMIRKGVSKNKLIADFNATLKRGKNLMFHQRRRVHAGSTASAALNATSATASSRQEYEFSCSNTPNYSFPFSNMAFMRKKSHNNLFTCGQTPQTLDDDVAAARAVLELLNGVGEKGNVTPADLTVALSPYFPGFGQTPLVRPLRVTDSPFPLTPENGDVANGHVDKAADDFIKKFYKNLNQQKKMIEFS,not soluble
4,MDRATVVGGAARRLAMIAVIIPAHNEAECMAACLASVFLAASHPELREPVEVIVAVDRCTDATAALAQALGARVIDVPVPGGVGIARAAAASKAIALGADWLAVTDADSRVPADWLVEQRRADADVFCGVVQVEDWLDYSDEVRCRFEQTQATGQGHGRIHGANLGVSAALYQQCGGFPAVTCSEDVALVHALQAINASIAWSPRSVVWTSARRQARAIGGFSDFLKKLEASTCVPALEHHHHHH,not soluble
5,MDREALQHRVLITVSRSSLFRVVEGILEEGKVSSMASSITEYLLNNRYSRERALEHISVYLESELEKSGIDLDDGVDGISLAILFVYEELLENKSEFFSKIQEKSGHALHPPSSDSEE,not soluble
6,MDRVDVVADLNDPLSCFPDDSVIEIYAHHVLEHVRNFIQLMQEVHRVCMRDSTVTIVVPHYSNQLAYSDPTHVRFFGLYTMCYFVERVFQPFKRKVPDFYIKEKFLLCEVVYDFEPKNTFLGRLFTRRVQLFINANPKRQEFYERYLCRFFPVASVRYVLSPVKLEHHHHHH,soluble
7,MDRVLPFRFAEEEGVFWLLDQRRLPQEEVYVPVRTAREMAQAIRDMVVRGAPAIGVSAAFGMVLAHLAGEDLEEADRRLRASRPTAVNLFHALDRMRPFWGDLAGSLLEARRIWREVEETEAAISRHGAQVLWGQVLTHCNTGPLATGGYGTALGAIVEAYRLGRVRHVWVDETRPYLQGARLTAYELQKAGVPATLITDGMAGWLMARGAVDAVVVGVDRMALNGDFANKVGTYALAVLAHHHGIPFYAALPLSSVDPRLASGEGIPIEERSPEEVVAFRGVRIAPEGFPAYHPAFDVTPHRYLTGIITEKGVLYPPFAEGLRRALGLD,soluble
8,MDSEGASSESSSSGDQLEKWTEEQDELKKKLIAYDDFTWKLSSSTELSQGSEILKYVGGVDMSFCKEDSSVACACLVVLELPSLRVVHHDFSLLRLHVPYVPGFLAFREAPVLLQILQKMRDEKHPFYPQVLMVDGNGILHPRGFGLACHLGVLAHLPTIGVGKNLHHVDGLNQSEVKQSLQLQINEHEQTITLVGNSGITWGVGFRPTLSSLKPIYVSVGHRISLDSAVEVVKITCKYRVPEPIRQADIRSRAYLQKHQTESFKELAVRPPDQTEP,soluble
9,MDSELKEEIPVHEEFILCGGAETQVLKCGPWTDLFHDQSVKRPKLLIFIIPGNPGFSAFYVPFAKALYSLTNRRFPVWTISHAGHALAPKDKKILTTSEDSNAQEIKDIYGLNGQIEHKLAFLRTHVPKDMKLVLIGHSIGSYFTLQMLKRVPELPVIRAFLLFPTIERMSESPNGRIATPLLCWFRYVLYVTGYLLLKPCPETIKSLLIRRGLQVMNLENEFSPLNILEPFCLANAAYLGGQEMMEVVKRDDETIKEHLCKLTFYYGTIDPWCPKEYYEDIKKDFPEGDIRLCEKNIPHAFITHFNQEMADMIADSLKDDLSKM,soluble
10,MDSGFTLRAPRNDKRRNPMPAILGTGEHRYRVVENFAKLPDGWQLTDVAAVAVDSLDRVYVFNRGAHPMVVLDREGNFLRSWGEGLFSRAHGLHIDADDNLYCTDDGDHTVRKCTSDGKVLLTIGIPAKPAPFMSGEPFHRCTHTALSPKGEIYVSDGYGNARVHKFTPDGKLIKSWGEPGTDPGQFNIVHNIATDSDGWVYVADRENHRVQVFNGEGKYETQWNNLHRPCALCCCGGRSPTFVIGELGPGLDINRNVPNLGPRLSIVDAKGNRIARLGGEEGPGVASGKFLAPHGIALDSKGDIYVGEVGVTNWATSFPDQEMPAVVRATRCLQKLERVRELEHHHHHH,not soluble
11,MDSKAKQMILSALCKHFSLDPEPFVGGAGESDIKTLYSNVLKASGKEVSAQNNDVLKWLDFAEGFSSDSKDWFSALEKLNLELATKSVLLGNGLTPSAADVAVFSALHSSVLGLSDSDKEKVPHVIRWVNYIQNKEELSTLFAPIPVKLPEFSFEVPKPAIKVETNSNSKKAAEGVKPVDKPDVQPQLGTKKTEPEEPKKNAAKEKDAKKEKKKPAEPEPAKKEAELSVSLLNIQVGLIRKAWKHPSADSLLVEEIDVGEDKVRQVVSGLAKFCSPEDLTNRLVALITNVKPGKLRDVMSQGLVLCASSEDHSVVEPLLPPAGAKPGERVSFSGIEGKPEDVLNPKKKQLEKITPGLYTDENGVATYKGIQFMTSAGPCTSSIPKATIK,soluble
12,MDSKQQCVKLNDGHFMPVLGFGTYAPPEVPRSKALEVTKLAIEAGFRHIDSAHLYNNEEQVGLAIRSKIADGSVKREDIFYTSKLWSTFHRPELVRPALENSLKKAQLDYVDLYLIHSPMSLKPGEELSPTDENGKVIFDIVDLCTTWEAMEKCKDAGLAKSIGVSNFNRRQLEMILNKPGLKYKPVCNQVECHPYFNRSKLLDFCKSKDIVLVAYSALGSQRDKRWVDPNSPVLLEDPVLCALAKKHKRTPALIALRYQLQRGVVVLAKSYNEQRIRQNVQVFEFQLTAEDMKAIDGLDRNLHYFNSDSFASHPNYPYSDEYLEHHHHHH,soluble
13,MDSQKLRTEGKKMLDFVADYWDGIRDRKPLPDVKPGYINDLVPAQAPATPEDWAKIFDDLENVVVNGATHWHHPHFFAYFPTALSYQSIMADILSGGIAGIGFTWKSCPSMTELEMSSLDWVVDLMGLPEHFKNSHNGPGCGIIQSTASDSTMIAIMAARATHVERIKSEPTFMKWVSETGVGKTLKNIFDRVKVNKVDDEASGMITPYFHDPTVFERFVMYCSDQAHSSVEKGAMLSAVRMRKLKATRGFLGNYGVSRETLQNAIKEDRARGYIPFMFLATVGTTCSCGVDQVDELGPVCVEEGLYLHVDAAYAGTFALCEEFKYLIRGMEHVDSFNFNLHKAGMVNFDCSPMWFKNGTHVSRYFNVDAVYLAHEYQTTASDYRHLQVALGRRFRSLKIWFVLRNMGVDKIREYLRRTELLAAEFSKLILENGKFEHFVPQHLGLTCFRLKNSTNADNEKLCNAINDDRRIHLVPSTVHGTYFLRMVVCSQLTTLDDIIYARDVIFELAEKLF,not soluble
14,MDSRIAIYVLVSASLLYLVNCHKLVHYFNLKINGSDITNTADILLDNYPIMTFDGKDIYPSIAFMVGNKLFLDLYKNIFVEFFRLFRVSVSSQYEELEYYYSCDYTNNRPTIKQHYFYNGEEYTEIDRSKKATNKNSWLITSGFRLQKWFDSEDCIIYLRSLVRRMEDSNKNSKKT,not soluble
15,MDSVMRKSLFLLLPLVVTNAHAVYVDVRHEYLDDSKANYDRAYISHRFANGVGFAIEAISKSGGDDTNKAFNDLETQGNEYTISYQFKTGDVAWQPGFVLETGNGYSTYKPYFRATWTLNESWWVGARYRFEYVRRSSDIRDDDTINRMDVWAGYKWNNFDWTIEGIYKKADKYDLYDGGKDNYEYNFRTAYIIDQWSPFVEVGNVSVNSNSDERQTRFRVGIGYTF,not soluble
16,MDTDNNLTFVDFYYRWLEITKLDIINDTSYKRYITAIKAFKDCFGNKLISDIDSLSYQKFLKDYGRGHFLNNGQLRPRTSNTVSKMNNCLKQAFESAVEQGYIKKNLEHHHHHH,not soluble
17,MDTSLPSAILNNMVTATLILDDGLAIRYANPAAELLFSQSAKRIVEQSLSQLIQHASLDLALLTQPLQSGQSITDSDVTFVVDGRPLMLEVTVSPITWQRQLMLLVEMRKID,soluble
18,MDTTTTSSLKSAEKKDTDATPRAHSPEIDVEVIKSDCSTPEKQNGAVGNEQQMNNSTSTRRTDSNKNLSPPPQRLRTSSSTSDGTENLISSLSSWDWVTIDGLKLPAVTRNKERYVAVHMVQLKLLSKFPSDIPRDITRKFTMGSHKMTVTEAWTFNTINAVIRKFDLGCQLFTANDELVKLNDVQMFYWNVKLFNLKRVNGQYETAISSAENNVQLLATAMQLKKQVDSDIQVIFK,not soluble
19,MDVEKIALKHALINAIEHGGKANLKAVIGKVLGENPELRPRAKEIIPIINKVVEEVNSLARDEQLEKLKDIYPEYFEKKEEKKEKKGLPLLPKAEKGKVVTRFAPNPDGAFHLGNARAAILSYEYAKMYGGKFILRFDDTDPKVKRPEPIFYKMIIEDLEWLGIKPDEIVYASDRLEIYYKYAEELIKMGKAYVCTCPPEKFRELRDKGIPCPHRDEPVEVQLERWKKMLNGEYKEGEAVVRIKTDLNHPNPAVRDWPALRIIDNPNHPRTGNKYRVWPLYNFASAIDDHELGVTHIFRGQEHAENETRQRYIYEYFGWEYPVTIHHGRLSIEGVVLSKSKTRKGIEEGKYLGWDDPRLGTIRALRRRGILPEAIKELIIEVGLKKSDATISWENLAAINRKLVDPIANRYFFVADPIPMEVEGAPEFIAEIPLHPDHPERGVRRLKFTPERPVYVSKDDLNLLKPGNFVRLKDLFNVEILEVGDKIRARFYSFEYEIAKKNRWKMVHWVTEGRPCEVIIPEGDELVVRKGLLEKDAKVQVNEIVQFERFGFVRIDRIEGDKVIAIYAHK,soluble
20,MDVEKLNLDNIISRLLEVRGSKPGKNVQLTESEIKGLCQKSREIFLSQPILLELEAPLKICGDVHGQYYDLLRLFEYGGFPPESNYLFLGDYVDRGKQSLETICLLLAYKIKYPENFFLLRGNHECASINRIYGFYDECKRRYNIKLWKTFTDCFNCLPVAAIIDEKIFCCHGGLSPDLQSMEQIRRIMRPTDVPDQGLLCDLLWSDPDKDVTGWGENDRGVSFTFGPEVVAKFLHKHDLDLICRAHQVVEDGYEFFAKRQLVTLFSAPNYCGEFDNAGSMMTVDETLMCSFQILKPADKKKYPYGAGGVGSNRPVTPPRNAPAAQPKKGAKK,not soluble
21,MDVNTTYTKELSIIVPIYNEERELPELVRRLSAAAASITEDYELIFVNDGSRDGSMELLRSLCKGDDRFFYINLSRNFGHQIAVSAGLDHVRGKATVIIDGDLQDPPELIPELYAKYREGYEVVYAQRKHREGETWFKKATAKGFYRTMRKITSIDMPLDTGDFRLIDRKIVQCLREMPEQNKFLRGQIAWMGFRQTGVQFDRDERKYGQTNYPLRKMLALAIDGITGFSSRPLEWVAQ,not soluble
